# According to article doi:10.1101/2022.04.29.490116:
# Read-outs that look alike come from different tables or passages of the source.
# T1: StbA1-75 (Escherichia coli plasmid R388, UniProt Q6I6C4 1-75)
# T1 sequence: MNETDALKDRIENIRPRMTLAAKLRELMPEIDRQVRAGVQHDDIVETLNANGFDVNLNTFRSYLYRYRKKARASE
# T2: StbA (Escherichia coli plasmid R388, UniProt Q6I6C4 1-141)
# T2 sequence: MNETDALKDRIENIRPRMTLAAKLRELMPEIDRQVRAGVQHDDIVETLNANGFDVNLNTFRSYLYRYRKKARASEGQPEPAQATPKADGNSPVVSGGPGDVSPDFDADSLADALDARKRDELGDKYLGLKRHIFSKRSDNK
# B1: stb2 (dsDNA)
# DNA 1: CCGTTCTAGCTCATTCTGTTCTTGCTTGCTGCATCATCACTGCATCATCCCAATGCCGATCTAGCTCATTACTGTTCTAT
# DNA 2: ATAGAACAGTAATGAGCTAGATCGGCATTGGGATGATGCAGTGATGATGCAGCAAGCAAGAACAGAATGAGCTAGAACGG
# B2: stb0 (dsDNA)
# DNA 1: CCTTAAACGGCCTATTGTTTCCAAGCGGAGTGACAACAAATGAAAGTAGCTGTGCTTAAGTATTCAACAAAGCCGCCGTC
# DNA 2: GACGGCGGCTTTGTTGAATACTTAAGCACAGCTACTTTCATTTGTTGTCACTCCGCTTGGAAACAATAGGCCGTTTAAGG
# B3: stb5b (dsDNA)
# DNA 1: TTGCCTGCATCATAGCTGTCCTATGACTGCATCACATTTGCATCATACATGCATTATTTC
# DNA 2: GAAATAATGCATGTATGATGCAAATGTGATGCAGTCATAGGACAGCTATGATGCAGGCAA
# B4: stb5 (dsDNA)
# DNA 1: TCTGTTCTTGCTTGCTGCATCATCACTGCATCATCACTGCATCATCACTGCATCATCACTGCATCATATGCCGATCTAGC
# DNA 2: GCTAGATCGGCATATGATGCAGTGATGATGCAGTGATGATGCAGTGATGATGCAGTGATGATGCAGCAAGCAAGAACAGA
# B5: stb5a (dsDNA)
# DNA 1: CCGTTTTAGCTCATTTTCTGCATCATTGTAGCACCATCATAGCATTATAGTTGCATCATTGCTGCACGATAACCCAATGC
# DNA 2: GCATTGGGTTATCGTGCAGCAATGATGCAACTATAATGCTATGATGGTGCTACAATGATGCAGAAAATGAGCTAAAACGG
# B6: stb3 (dsDNA)
# DNA 1: TAGCTCATTCTGTTCTTGCTTGCTGCATCATCACTGCATCATAGCTGCATCATCAATGCCGATCTAGCTCATTACTGTTC
# DNA 2: GAACAGTAATGAGCTAGATCGGCATTGATGATGCAGCTATGATGCAGTGATGATGCAGCAAGCAAGAACAGAATGAGCTA
# Columns and labels:
# [1] = target: StbA of plasmid R388, full length, C-terminally (His)6-tagged (enterobacterial plasmid R388); assay: SEC
# StbA1-75 [2] = target: T1, StbA1-75; assay: EMSA
# StbA [3] = target: T2, StbA; assay: EMSA
# StbA [4] = target: T2, StbA; assay: EMSA; remark: listed apart in the source
# StbA [5] = target: T2, StbA; assay: EMSA; remark: listed apart in the source
# StbA [6] = target: T2, StbA; assay: EMSA; remark: listed apart in the source
# StbA1-75 [7] = target: T1, StbA1-75; assay: EMSA; remark: listed apart in the source
# StbA [8] = target: T2, StbA; assay: EMSA; remark: listed apart in the source
# StbA [9] = target: T2, StbA; assay: EMSA; remark: listed apart in the source
# StbA1-75 [10] = target: T1, StbA1-75; assay: EMSA; remark: listed apart in the source
molecule,measurement,setting,value
"StbA of plasmid R388, full length, C-terminally (His)6-tagged (natural protein)",stoichiometry N,[1],2
B1,binding result,StbA1-75 [2],binds
same,binding result,StbA [3],binds
B2,binding result,StbA [4],no binding
B3,binding result,StbA [5],binds
B4,binding result,StbA [6],binds
B5,binding result,StbA1-75 [7],binds
same,binding result,StbA [8],binds
B6,binding result,StbA [9],binds
same,binding result,StbA1-75 [10],binds
